{"source": "paper PMC5758890", "key": {"[1]": {"biological_target": "T. thermophilus RNAP σ^A holoenzyme (T. thermophilus HB8) (UniProt Q5SHR6)", "experiment": "SPR"}, "[2]": {"biological_target": "T. thermophilus RNAP core enzyme (T. thermophilus) (UniProt Q5SHR6)", "experiment": "SPR"}}, "data": [{"substance": "Thermus thermophilus bacteriophage P23–45 gp76 (natural protein)", "values": [{"measurement": "Kd", "setting": "[1]", "result": 0.12, "unit": "µM"}, {"measurement": "Kd", "setting": "[2]", "result": 8.4, "unit": "µM"}]}]}
